Data as given in doi:10.1101/2024.03.03.583237 (bioRxiv, 2024).

Molecular target: SARS-CoV-2 spike trimer (soluble S-trimer) (SARS-CoV-2 Wuhan-Hu-1 (NC_045512), UniProt P0DTC2)
Test: live-cell binding assay

B1: S2L20-CVR (scFv, V domains shown)
VH: EVQLVESGGGVVQPGGSLRLSCAASGFTFNSYGMHWVRQAPGKGLEWVAFIRYDGGNKYYADSVKGRFTISRDNSKNTLYLQMKSLRAEDTAVYYCANLKDSRYSGSYYDYWGQGTLVTVS
VL: not shown
B1: binds.
